Results taken from publication PMC3744876.
Like-named read-outs stand apart in the source and are kept apart here.

Tests used:
[1] = target: T1, RIG-I CTD H847A (human, UniProt O95786 792-925, H847A); experiment: EMSA
T1 sequence: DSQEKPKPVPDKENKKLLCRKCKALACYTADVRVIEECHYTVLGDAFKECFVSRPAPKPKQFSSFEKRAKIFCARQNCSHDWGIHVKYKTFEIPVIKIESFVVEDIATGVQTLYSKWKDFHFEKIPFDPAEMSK

[2] = target: T2, RIG-I CTD H847A/K858A (human, UniProt O95786 792-925, H847A;K858A); experiment: ITC
T2 sequence: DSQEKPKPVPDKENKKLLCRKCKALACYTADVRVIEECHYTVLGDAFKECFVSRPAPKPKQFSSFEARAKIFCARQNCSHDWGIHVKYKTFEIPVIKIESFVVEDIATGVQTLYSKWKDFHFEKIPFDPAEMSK

[3] = target: T1, RIG-I CTD H847A; experiment: ITC
[4] = target: T3, RIG-I CTD (human, UniProt O95786 792-925); experiment: ITC
T3 sequence: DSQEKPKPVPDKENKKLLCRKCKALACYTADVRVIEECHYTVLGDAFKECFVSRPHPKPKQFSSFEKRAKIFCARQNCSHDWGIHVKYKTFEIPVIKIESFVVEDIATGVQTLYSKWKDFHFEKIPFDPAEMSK

[5] = target: T3, RIG-I CTD; experiment: ITC; remark: listed apart in the source

B1: 5'-ppp-dsRNA 12-mer, 32pCp-labelled (dsRNA)
RNA 1: GACGCUAGCGUC
RNA 2: GACGCUAGCGUC
modifications: 5'-triphosphate; labelled strand (ppp-11-mer S1 + pCp) carries an additional 3'-phosphate
[1]
  binding signal: ~10 fold weaker than WT

B2: 5'-ppp-dsRNA 12-mer (dsRNA)
RNA 1: GACGCUAGCGUC
RNA 2: GACGCUAGCGUC
modifications: 5'-triphosphate on both strands
[2]
  Kd: 649 nM
[3]
  Kd: 162 nM
[4]
  Kd: 29.2 nM
[5]
  Kd: 215 nM
